These binders were tested against SARS-CoV-2 spike RBD (Wuhan-Hu-1), His-tagged (SARS-CoV-2 (Wuhan-Hu-1 strain), UniProt P0DTC2 319-541) (assay: BLI; 3 mM MgCl2; 10 mM phosphate pH 7.4, 137 mM NaCl, 2.7 mM KCl, 3 mM MgCl2, 0.01% BSA, 0.002% Tween 20, 25 °C; aptamer 175-1400 nM, n=2). Conditions: protein: commercial; tags: His.
With GCUGGUGCUGCAGCUUAUUAUGUGGGUUAUCUUCAACCUA (structured_RNA) [Aptamer 22] the Kd was 5450 ± 1700 nM.
GAUGGUAAUGCUGCUAUCAGCGAUUAUGACUACUAUCGUU (structured_RNA) [Aptamer 62] gave a Kd of 285 ± 141 nM.
In the case of CACUACCAAGAGUGUGUUAGAGGUACAACAGUACUUUUAA (structured_RNA) [Aptamer 23], the Kd is reported as 29300 ± 10400 nM.
GUUUCGGAAGAGACAGGUACGUUAAUAGUUAAUAGCGUAC (structured_RNA) [Aptamer 40] showed a Kd of 571 ± 173 nM.
GAUUUUAGUCAUAGUCAGUUAGGUGGUUUACAUCUACUGA (structured_RNA) [Aptamer 11] was tested, and the Kd was 425 ± 146 nM.
